Results published in paper PMC10397247.

Key:
Assay in all cases: two-hybrid library CCmax;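 also: natural log of median RNA to DNA barcode read ratio; higher means stronger binding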
4H3921-AA = molecular target: T1, 4H3921-AA; conditions: mean of both orientations
T1 chain: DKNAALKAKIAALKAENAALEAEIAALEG

4H2505-AA = molecular target: T2, 4H2505-AA; conditions: mean of both orientations
T2 chain: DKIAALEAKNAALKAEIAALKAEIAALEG

4H2617-AA = molecular target: T3, 4H2617-AA; conditions: mean of both orientations
T3 chain: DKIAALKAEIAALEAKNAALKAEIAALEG

4H2466-AA = molecular target: T4, 4H2466-AA; conditions: mean of both orientations
T4 chain: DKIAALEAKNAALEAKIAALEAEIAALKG

4H3655-AA = molecular target: T5, 4H3655-AA; conditions: mean of both orientations
T5 chain: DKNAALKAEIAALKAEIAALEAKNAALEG

4H906-AA = molecular target: T6, 4H906-AA; conditions: mean of both orientations
T6 chain: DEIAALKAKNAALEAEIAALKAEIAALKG

4H717-AA = molecular target: T7, 4H717-AA; conditions: mean of both orientations
T7 chain: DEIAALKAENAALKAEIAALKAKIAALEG

4H335-AA = molecular target: T8, 4H335-AA; conditions: mean of both orientations
T8 chain: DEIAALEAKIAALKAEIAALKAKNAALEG

4H2354-AA = molecular target: T9, 4H2354-AA; conditions: mean of both orientations
T9 chain: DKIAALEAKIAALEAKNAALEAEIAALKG

4H3427-AA = molecular target: T10, 4H3427-AA; conditions: mean of both orientations
T10 chain: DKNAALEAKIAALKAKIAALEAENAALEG

4H2393-AA = molecular target: T11, 4H2393-AA
T11 chain: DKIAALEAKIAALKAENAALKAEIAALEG

4H3343-AA = molecular target: T12, 4H3343-AA; conditions: mean of both orientations
T12 chain: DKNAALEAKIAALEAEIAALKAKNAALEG

4H3606-AA = molecular target: T13, 4H3606-AA; conditions: mean of both orientations
T13 chain: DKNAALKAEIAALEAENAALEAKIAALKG

4H234-AA = molecular target: T14, 4H234-AA; conditions: mean of both orientations
T14 chain: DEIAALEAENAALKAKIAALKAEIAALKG

4H2729-AA = molecular target: T15, 4H2729-AA; conditions: mean of both orientations
T15 chain: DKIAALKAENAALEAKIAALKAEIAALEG

4H3112-AA = molecular target: T16, 4H3112-AA; conditions: mean of both orientations
T16 chain: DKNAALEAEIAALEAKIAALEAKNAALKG

4H2944-AA = molecular target: T17, 4H2944-AA; conditions: mean of both orientations
T17 chain: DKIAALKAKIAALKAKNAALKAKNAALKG

4H678-AA = molecular target: T18, 4H678-AA; conditions: mean of both orientations
T18 chain: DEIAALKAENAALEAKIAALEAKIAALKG

4H993-AA = molecular target: T19, 4H993-AA; conditions: mean of both orientations
T19 chain: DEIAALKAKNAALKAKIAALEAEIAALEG

4H2575-AA = molecular target: T20, 4H2575-AA; conditions: mean of both orientations
T20 chain: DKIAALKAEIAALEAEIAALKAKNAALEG

4H605-AA = molecular target: T21, 4H605-AA; conditions: mean of both orientations
T21 chain: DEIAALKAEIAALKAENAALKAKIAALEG

4H2642-AA = molecular target: T22, 4H2642-AA; conditions: mean of both orientations
T22 chain: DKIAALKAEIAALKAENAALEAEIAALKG

4H780-AA = molecular target: T23, 4H780-AA
T23 chain: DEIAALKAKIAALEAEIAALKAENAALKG

4H2949-AA = molecular target: T24, 4H2949-AA; conditions: mean of both orientations
T24 chain: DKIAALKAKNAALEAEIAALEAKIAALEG

4H2883-AA = molecular target: T25, 4H2883-AA; conditions: mean of both orientations
T25 chain: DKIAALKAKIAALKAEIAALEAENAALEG

4H2837-AA = molecular target: T26, 4H2837-AA; conditions: mean of both orientations
T26 chain: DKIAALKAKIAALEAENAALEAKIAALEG

4H317-AA = molecular target: T27, 4H317-AA; conditions: mean of both orientations
T27 chain: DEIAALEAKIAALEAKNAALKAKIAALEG

4H342-AA = molecular target: T28, 4H342-AA; conditions: mean of both orientations
T28 chain: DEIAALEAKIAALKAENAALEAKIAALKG

4H48-AA = molecular target: T29, 4H48-AA; conditions: mean of both orientations
T29 chain: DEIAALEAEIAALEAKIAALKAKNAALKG

4H794-AA = molecular target: T30, 4H794-AA; conditions: mean of both orientations
T30 chain: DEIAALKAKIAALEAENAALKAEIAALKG

4H429-AA = molecular target: T31, 4H429-AA; conditions: mean of both orientations
T31 chain: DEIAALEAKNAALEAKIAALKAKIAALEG

4H2277-AA = molecular target: T32, 4H2277-AA
T32 chain: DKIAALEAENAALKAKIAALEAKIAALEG

4H2754-AA = molecular target: T33, 4H2754-AA; conditions: mean of both orientations
T33 chain: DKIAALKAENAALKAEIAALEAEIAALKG

4H881-AA = molecular target: T34, 4H881-AA; conditions: mean of both orientations
T34 chain: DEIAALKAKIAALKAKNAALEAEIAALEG

4H454-AA = molecular target: T35, 4H454-AA; conditions: mean of both orientations
T35 chain: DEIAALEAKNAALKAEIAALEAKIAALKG

4H3844-AA = molecular target: T36, 4H3844-AA; conditions: mean of both orientations
T36 chain: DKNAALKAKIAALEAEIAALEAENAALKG

4H3627-AA = molecular target: T37, 4H3627-AA; conditions: mean of both orientations
T37 chain: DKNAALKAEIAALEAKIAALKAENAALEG

4H566-AA = molecular target: T38, 4H566-AA; conditions: mean of both orientations
T38 chain: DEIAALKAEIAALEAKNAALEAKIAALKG

- interaction score (4H3921-AA): -1.56
- interaction score (4H2505-AA): -0.635
- interaction score (4H2617-AA): -1.68
- interaction score (4H2466-AA): -1.07
- interaction score (4H3655-AA): -1.32
- interaction score (4H906-AA): -1.51
- interaction score (4H717-AA): -0.927
- interaction score (4H335-AA): -1.2
- interaction score (4H2354-AA): -1.26
- interaction score (4H3427-AA): -1.51
- interaction score (4H2393-AA): -1.39
- interaction score (4H3343-AA): -1.26
- interaction score (4H3606-AA): -1.85
- interaction score (4H234-AA): -0.0407
- interaction score (4H2729-AA): 0.856
- interaction score (4H3112-AA): -1.43
- interaction score (4H2944-AA): -1.56
- interaction score (4H678-AA): 0.351
- interaction score (4H993-AA): 0.398
- interaction score (4H2575-AA): -1.59
- interaction score (4H605-AA): -1.38
- interaction score (4H2642-AA): -0.59
- interaction score (4H780-AA): -1.36
- interaction score (4H2949-AA): 0.749
- interaction score (4H2883-AA): -1.6
- interaction score (4H2837-AA): -1.08
- interaction score (4H317-AA): -1.02
- interaction score (4H342-AA): -0.907
- interaction score (4H48-AA): -1.36
- interaction score (4H794-AA): -1.24
- interaction score (4H429-AA): -0.713
- interaction score (4H2277-AA): 1.95
- interaction score (4H2754-AA): 0.512
- interaction score (4H881-AA): -1.05
- interaction score (4H454-AA): 1.29
- interaction score (4H3844-AA): -1.39
- interaction score (4H3627-AA): -1.28
- interaction score (4H566-AA): -0.827
Binder: DKIAALEAENAALKAKIAALEAKIAALEG [4H2277-AA]
